The values below come from patent US20170081417A1 (Kyowa Kirin, published 2017).

Assay [1] deals with T1, human OX40 extracellular domain fused to the Fc portion of human IgG1 (hOX40:hFc) (human).
T1 construct: Made in Tn5 insect cells; also called OX40-hIgG1; human OX40:hIgG1 fusion protein
Briefly: ELISA, OX40L-FLAG binding to coated hOX40:hFc, anti-FLAG-HRP. As for the experimental part: The ability of 112F32, 112V8, 112Y131, 112Y55, and 112Z5 to block soluble hOX40L binding to coated hOX40:hFc fusion protein was tested using an ELISA protocol (FIG. 5A, Table 3). The plates were coated with hOX40:hFc and after blocking non-specific sites the anti-OX40 antibodies were allowed to bind. Without washing OX40L-FLAG was added to the wells. Bound ligand was detected with anti-FLAG-HRP secondary antibody. Percent inhibition was determined using the following formula (100−(OD sample/OD maximum OX40L binding))*100. 112V8, 112Y55, and 112Y131 prevented 85% of the binding of soluble OX40L to hOX40:hFc. 112F32 prevented approximately 70% of the binding of soluble hOX40L to hOX40:hFc and 112Z5 blocked 67% of the maximal binding.
A general note: ELISA stands for enzyme-linked immunosorbent assay.

The target of assay [2] is T2, human OX40 peptide 112A (human, also: conjugated to KLH via maleimide linker).
T2 peptide: RPAGPGFYNDVVSSKPC
Briefly: ELISA on coated KLH-conjugated peptide. The procedure:
(§1) Antibody titers, specificity, and production by hybridomas were determined by ELISA. In brief, 96 well flat bottom plates were coated with 50 μl of hOX40:hFc at 5 μg/ml in carbonate buffer (pH 9.4) overnight at 4° C. or at 37° C. for one hour. After washing twice with PBS/0.1% Tween 20, plates were blocked with PBS/1% BSA/0.1% Tween20 at 37° C. for one hour. The serum, supernatant, or purified antibody was diluted in blocking buffer, added to the wells, and the plates were incubated for one hour at 37° C. The plates were washed four times with PBS/0.1% Tween 20 and the peroxidase conjugated sheep anti-human kappa detection antibody (The Binding Site, Birmigham, UK) was added at a dilution of 1:2000. Following one hour incubation at 37° C., the plates were washed and the TMB (Sigma) substrate was added and incubated at room temperature for ten to thirty minutes. The reaction was stopped with H₂SO₄ (LabChem) and the optical density was measured at 450 nm by a microplate reader.
(§2) The peptides were generated by A & A Lab, LLC and conjugated to keyhole limpet hemocyanin (“KLH”) with a maleimide linker following the manufacturer's instructions (Pierce). The peptides were coated at 10 μg/ml in carbonate buffer to 96 well Maxisorp ELISA plates (Nunc) at 4° C. overnight. The plate was washed with PBS/0.1% Tween 20 and then blocked with Casein buffer (Pierce) for three hours at room temperature. Candidate antibodies were added at 10 μg/ml diluted in 10% Casein in PBS/0.1% Tween 20. The remainder of the ELISA was performed as described for the OX40 specific antibody detection ELISA.

Assay [3] deals with T3, human OX40 peptide 112B (human, also: conjugated to KLH via maleimide linker).
T3 peptide: RAGTQPLDSYKPGVDC
Briefly: ELISA on coated KLH-conjugated peptide. As for the experimental part:
as §1, §2

Assay [4] addresses T4, human OX40 peptide 112C (human, also: conjugated to KLH via maleimide linker).
T4 peptide: LAGKHTLQPASNSSDAIC
The experiment in a line: ELISA on coated KLH-conjugated peptide. As for the experimental part: as §1, §2

No end group written: not given here.

T1 sequence (chain, as listed by the source limits assumed): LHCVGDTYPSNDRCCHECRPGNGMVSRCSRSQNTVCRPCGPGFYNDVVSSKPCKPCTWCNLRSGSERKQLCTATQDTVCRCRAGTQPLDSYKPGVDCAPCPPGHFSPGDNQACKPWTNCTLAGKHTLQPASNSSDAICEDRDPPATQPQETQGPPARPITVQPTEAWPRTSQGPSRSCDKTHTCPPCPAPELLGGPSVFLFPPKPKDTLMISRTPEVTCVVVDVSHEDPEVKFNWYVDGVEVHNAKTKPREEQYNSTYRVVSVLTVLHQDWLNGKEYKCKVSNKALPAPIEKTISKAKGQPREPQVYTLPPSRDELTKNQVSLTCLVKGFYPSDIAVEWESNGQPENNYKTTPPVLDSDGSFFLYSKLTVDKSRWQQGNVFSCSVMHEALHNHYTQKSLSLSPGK

B1: 112Y55 human anti-human OX40 monoclonal antibody (hybridoma ATCC No. PTA-7220) (antibody, V domains shown)
VH: QITLKESGPTLVKPTQTLTLSCTFSGFSLSTSGVGVGWIRQPPGKALEWLALIHWDDAERYSPSLKSRLTITKDTSKNQVVLTMTNMDLVDTATYYCAHTRGAFDIWGQGTMVTVSS
VL: EIVLTQSPGTLSLSPGERAILSCRASQSVSSSFLAWYQQKPGQAPRLLIYGAFSRATGIPDRFSGSGSGTDFTLTISRLEPEDFAVYYCQQYDSSRTFGQGTKVEIK
Turning to B1, in assay [1], the “percent inhibition of OX40L binding” value is 85%. The binding result in assay [2], in assay [3] and in assay [4] was “no binding (tested: 10 µg/ml)” each time.

B2: 112Y131 human anti-human OX40 monoclonal antibody (hybridoma ATCC No. PTA-7218) (antibody, V domains shown)
VH: QITLKESGPTLVKPTQTLTLTCTFSGFSLSTSGVGVGWIRQPPGKALEWLALIYWDDHSPYSPSLKSRLTITKDTSKNQVVLTMTNMDPVDTATYYCARTRGAFDIWGQGTMVTVSS
VL: EIVLTQSPATLSLSPGERATLSCRASQGVSSYLAWYQQKPGQAPRLLIYDASNRATGIPARFSGSGPGTDFTLTISSLEPEDFAVYYCQQRSNWHPTFGQGTKVEIK
Regarding B2, the “percent inhibition of OX40L binding” value in assay [1] was 85%. Besides, the binding result in assay [2], in assay [3] and in assay [4] was “no binding (tested: 10 µg/ml)” in each case.
